Reference: the supplement of paper PMC9732359
± gives the uncertainty stated by the source.

Experiment: protein stability index of a GFP-peptide fusion (yeast GPS) (PSI 1-4); higher = more stable; sorted into four equal gates, so the index is relative within each strain
Procedure, shortened: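 Sequencing reads from sorted gates were used to score each peptide. The library consisted of tiled 17-residue yeast protein peptides fused downstream of GFP on a Cherry-expressing plasmid, pooled and carried in yeast. Mid-log cultures in leucine-free medium were split into four equal gates by GFP/Cherry ratio, and each gate's plasmids were PCR-amplified and Illumina-sequenced. The protein stability index adds up, over all gates, the read frequency multiplied by the gate number.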

Sequence	protein stability index (doa10∆)	protein stability index (pdr5∆)	protein stability index (san1∆)	protein stability index (ubr1∆)
FLQELLKKVQQQQQAAA [SWI1]	2.06 ± 0.081	2.6 ± 0.088	2.47 ± 0.1	2.85 ± 0.1
DYINELSNSNRFELHGD [REC8]	2.78 ± 0.12	3.08 ± 0.11	3 ± 0.092	3.03 ± 0.13
EKKLEDYCRILSDIETA [YGL172W/NUP49]	1.75 ± 0.11	3.14 ± 0.09	2.67 ± 0.11	2.55 ± 0.089
NSTASSSNISPEQVYSL [ARP7]	2.57 ± 0.05	2.78 ± 0.046	2.63 ± 0.051	2.88 ± 0.039
VITIKSRIRVKIEGCIS [RPB7]	2.04 ± 0.082	2.13 ± 0.056	1.88 ± 0.081	2.07 ± 0.064
NKEKSNSPTSFFDGSAS [YOR098C/NUP1]	3.1 ± 0.068	3.07 ± 0.057	3.02 ± 0.041	2.95 ± 0.081
LVPPPRTIANQDHFHRL [RPR2]	3.01 ± 0.086	3.15 ± 0.069	2.88 ± 0.051	2.93 ± 0.066
TTIEEIFLHSLPVKEFQ [RPS2]	2.82 ± 0.067	2.78 ± 0.069	3.01 ± 0.067	2.79 ± 0.073
KSLHEMNERDWRILKED [PRP28]	3.4 ± 0.19	3.05 ± 0.2	3.33 ± 0.072	3.01 ± 0.23
FTYNKFLLNQNKQLSQS [YIL149C/MLP2]	2.68 ± 0.069	2.96 ± 0.06	3.15 ± 0.06	3.17 ± 0.062
TVFFLIRVAETRGGASA [YJL039C/NUP192]	2.18 ± 0.071	2.08 ± 0.074	2.76 ± 0.13	2.13 ± 0.047
LNQINGLNNDFLFQNIN [GRR1]	1.6 ± 0.1	2.13 ± 0.088	2.01 ± 0.11	1.8 ± 0.086
TGNNNNIATQQNMQQSL [GAL11]	2.06 ± 0.048	2.49 ± 0.077	2.55 ± 0.11	2.59 ± 0.052
SMRTIMKANPALYVLRE [PRP8]		1.91 ± 0.29		1.37 ± 0.28
PQKPVPLNVLQDQYKEG [SNF2]	3.01 ± 0.07	3.33 ± 0.096	3.1 ± 0.086	2.94 ± 0.044
ERQQENLLIQRLNFNQN [SWI3]	3.26 ± 0.071	3.38 ± 0.073	3.2 ± 0.042	3.19 ± 0.055
REDIDDPLAKVNVLLQS [BRR2]	2.91 ± 0.12	3.04 ± 0.088	3.19 ± 0.092	2.96 ± 0.11
ELSVTGSAINHHRIFDS [YMR129W/POM152]	3.02 ± 0.12	3.24 ± 0.1	2.91 ± 0.12	2.93 ± 0.052
QNPLPTRFEVELEFIQS [SOH1]	2.38 ± 0.083	2.39 ± 0.073	2.29 ± 0.084	2.83 ± 0.078
GEENRVRFIGDSVAAIG [QCR2]	3.3 ± 0.15	2.76 ± 0.18		3 ± 0.24
PQTPLVEPVTERTKLQE [SNU114]	3.29 ± 0.15	3.07 ± 0.18	3.08 ± 0.1	3.31 ± 0.13
NNKITQLIAKNVANVSG [SIR3]	1.7 ± 0.067	1.88 ± 0.063	2.07 ± 0.094	2.35 ± 0.054
FSRHAQQQTSTFNSKPV [SIR4]	2.38 ± 0.056	2.82 ± 0.058	2.07 ± 0.076	2.38 ± 0.047
GSYGSLLRFNGVERLIP [PRE4]	2 ± 0.064	2.44 ± 0.069	2.04 ± 0.12	2.22 ± 0.12
FTLLDFKKQMQTIMKMG [SRP54]	1.36 ± 0.13	2.67 ± 0.15	1.42 ± 0.17	2.71 ± 0.17
KFSLPFEQKGSQTTTND [YLR335W/NUP2]	3.25 ± 0.1	3.08 ± 0.1	3.11 ± 0.099	3.09 ± 0.094
SFTDILKSAIRDEIAKN [RPN12]	2.76 ± 0.1	2.98 ± 0.12	3.08 ± 0.09	2.89 ± 0.065
ANFKTSKKYQLADWRIR [RRP6]	2.97 ± 0.1	3.05 ± 0.096	2.84 ± 0.15	2.92 ± 0.1

Sequence	protein stability index (doa10∆)	protein stability index (pdr5∆)	protein stability index (san1∆)	protein stability index (ubr1∆)
EVWSVSWNLTGTILSSA [YGL100W/SEH1]	1.7 ± 0.07	1.5 ± 0.083	1.33 ± 0.15	1.63 ± 0.061
QTVSNKEDAKATMENIQ [SRP54]	2.98 ± 0.062	3.18 ± 0.066	2.91 ± 0.075	2.99 ± 0.056
DNKDKEGNAGGDQKTSE [YOR098C/NUP1]		3.6 ± 0.17	3.19 ± 0.17	3.35 ± 0.074
KRQFNNSYWLIILLGVL [ITC1]	2.16 ± 0.066	1.6 ± 0.056	1.5 ± 0.1	1.97 ± 0.04
WIRLRTNNTIRYNAKRR [RPL39]	2.88 ± 0.12	2.65 ± 0.083	2.93 ± 0.1	2.72 ± 0.066
PELFESLGIAQPKGVIL [RPT6]	2.56 ± 0.052	2.82 ± 0.069	2.46 ± 0.092	2.54 ± 0.061
NKQYHQANSNLTLLERK [NUT1]	2.34 ± 0.054	2.77 ± 0.055	2.59 ± 0.082	2.83 ± 0.066
VKKVIEINPFLLGTMAG [PRE2]	1.37 ± 0.14	1.86 ± 0.18	1.38 ± 0.28	
RNNSKSVLLKKLGSVRV [SRP72]		1.33 ± 0.11		1.69 ± 0.087
PRALQPSQFGMLCTADT [RET1]	1.87 ± 0.1	1.57 ± 0.05	2.02 ± 0.13	2.18 ± 0.051
ENDNLDNVSKNALDKLR [YCG1]	3.29 ± 0.099	3.15 ± 0.16	3.08 ± 0.08	3.26 ± 0.1
QADLQAMDRAHRIGQKK [ISW2]			3.14 ± 0.23	
LGKGGAKRHRKILRDNI [HHF1]	3.36 ± 0.26	3.21 ± 0.17	3.4 ± 0.19	2.99 ± 0.14
NVMTPREQYETQVALNE [UBP6]	3.17 ± 0.087	3.22 ± 0.16	2.83 ± 0.13	3.05 ± 0.091
DHKYVCTFSMEPYHFIS [SRB8]	2.37 ± 0.061	2.03 ± 0.047	1.83 ± 0.059	2.09 ± 0.043
TDSSALTYDRLEFATIR [PRE9]	3.07 ± 0.081	3.27 ± 0.076	3.01 ± 0.056	3.18 ± 0.045
NVLNQINQIFSPEEQRS [GAL11]	2.83 ± 0.045	2.93 ± 0.035	2.91 ± 0.039	2.81 ± 0.038
GTSQNYGTATADDADIE [MED1]	3.22 ± 0.071	3.29 ± 0.073	3.08 ± 0.058	3.24 ± 0.061
LDQVGVPKSIAKTLTYP [RPO21]	2.74 ± 0.064	2.83 ± 0.051	2.65 ± 0.043	2.99 ± 0.06
FPQTAMLRRHAAPPSTN [DIS3]	1.89 ± 0.1	1.93 ± 0.12		1.74 ± 0.07
GDYVAYQLNGVAPFMIK [YMR129W/POM152]	1.53 ± 0.075	1.49 ± 0.08	1.66 ± 0.17	1.84 ± 0.059
AVVQTVKGLLNTYKRLV [YJL039C/NUP192]	1.8 ± 0.11	2.37 ± 0.085	1.92 ± 0.14	2.45 ± 0.083
EEYARRLAEFKRRKLDL [SMC4]	3.13 ± 0.13	3.46 ± 0.12	2.72 ± 0.1	3.31 ± 0.08
QELLNAETLCFTVNVLY [RPN3]	3.11 ± 0.075	2.75 ± 0.087	2.94 ± 0.065	2.87 ± 0.062
DLENKFNRLKKQAHEKL [YIL149C/MLP2]	2.75 ± 0.11	2.71 ± 0.067	2.3 ± 0.17	2.81 ± 0.063
PKQSDEYLKRVSVPVSG [SIR3]	3.13 ± 0.086	2.55 ± 0.089	2.81 ± 0.096	2.72 ± 0.14
RSPVFALNMLPSEILHL [GRR1]	2.3 ± 0.049	2.27 ± 0.042	2.4 ± 0.053	2.19 ± 0.028
